Measurements as given in patent publication US20200392227A1 (LYVGEN BIOPHARMA, published 2020).
Like-named read-outs stand apart in the source and are kept apart here.

What was measured:
Experiment in all cases: BLI
[1] = target: T1, human FcRIIIB protein (MednaBio, E1037) (human, UniProt O75015 17-200)
T1 construct: Bought; also called FcγRIIIB; FcgRIIIB
Summary of the method: (§1)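 On an Octet Red96 System, anti-penta-HIS biosensors loaded with commercial human Fc receptor proteins were dipped into test IgG diluted 1:3 over 8 points from 300 nM. Fcγ receptor runs used pH 7.2 and FcRn runs used pH 6. Global fitting of these biolayer interferometry data gave the values for Kd, kon and koff, using a 1:1 binding model.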

[2] = target: T2, human FcRIIIA-F158 protein (MednaBio, E1036) (human, UniProt P08637 17-208)
T2 construct: Bought; also called FcγRIIIA(F)
Summary of the method: as §1

[3] = target: T1, human FcRIIIB protein (MednaBio, E1037); remark: listed apart in the source
[4] = target: T2, human FcRIIIA-F158 protein (MednaBio, …); remark: listed apart in the source
[5] = target: T3, human FcRIIA protein (MednaBio, E1033) (human, UniProt P12318 34-218, limits assumed)
T3 construct: Bought; also called FcγRIIA
T3 sequence (looked up): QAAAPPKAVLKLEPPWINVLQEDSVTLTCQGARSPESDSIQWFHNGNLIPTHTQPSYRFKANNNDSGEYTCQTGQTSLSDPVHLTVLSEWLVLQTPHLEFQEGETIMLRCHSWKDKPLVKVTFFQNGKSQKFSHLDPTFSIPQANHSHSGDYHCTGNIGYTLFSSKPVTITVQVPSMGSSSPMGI
Summary of the method: as §1

[6] = target: T4, human FcRIIB/C protein (MednaBio, E1034) (human, UniProt P31994 43-217, limits assumed)
T4 construct: Bought as FcRIIB/C; also called FcγRIIB; CD32B
T4 sequence (looked up): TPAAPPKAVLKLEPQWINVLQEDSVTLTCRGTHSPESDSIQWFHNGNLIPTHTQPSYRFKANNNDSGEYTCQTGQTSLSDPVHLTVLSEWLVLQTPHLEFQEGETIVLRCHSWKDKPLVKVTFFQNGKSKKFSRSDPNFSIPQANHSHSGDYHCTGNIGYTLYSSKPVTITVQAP
Summary of the method: as §1

[7] = target: T1, human FcRIIIB protein (MednaBio, E1037); remark: listed apart in the source
Summary of the method: as §1

[8] = target: T5, human FcRn protein (MednaBio, E1032) (human, UniProt P55899 24-297; P61769 21-119)
T5 construct: Bought; assays at pH 6
Summary of the method: as §1

[9] = target: T6, human FcRIIIA-V158 protein (MednaBio, E1035) (human, UniProt P08637 17-208)
T6 construct: Bought; also called FcγRIIIA(V); FcgRIIIA(V)
Summary of the method: as §1

[10] = target: T7, human FcRI protein (MednaBio, E1031) (human, UniProt P12314 16-288, limits assumed)
T7 construct: Bought; loaded on anti-penta-HIS biosensors; also called FcγRI
Summary of the method: as §1

[11] = target: T2, human FcRIIIA-F158 protein (MednaBio, …); remark: listed apart in the source
Summary of the method: as §1

[12] = target: T1, human FcRIIIB protein (MednaBio, E1037); remark: listed apart in the source
Summary of the method: as §1

[13] = target: T2, human FcRIIIA-F158 protein (MednaBio, …); remark: listed apart in the source
Summary of the method: as §1

[14] = target: T1, human FcRIIIB protein (MednaBio, E1037); remark: listed apart in the source
[15] = target: T2, human FcRIIIA-F158 protein (MednaBio, …); remark: listed apart in the source

T5 sequence (P55899 24-297 limits assumed, form in doubt, chain 1 of 2): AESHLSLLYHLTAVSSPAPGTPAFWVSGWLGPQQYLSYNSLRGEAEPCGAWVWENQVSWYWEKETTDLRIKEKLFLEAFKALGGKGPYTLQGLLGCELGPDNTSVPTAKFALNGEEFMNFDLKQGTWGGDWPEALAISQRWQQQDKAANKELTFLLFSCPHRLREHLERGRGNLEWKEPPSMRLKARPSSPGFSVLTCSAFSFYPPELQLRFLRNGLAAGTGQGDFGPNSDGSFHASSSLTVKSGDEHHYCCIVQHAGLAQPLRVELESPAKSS
T5 sequence (P61769 21-119 limits assumed, form in doubt, chain 2 of 2): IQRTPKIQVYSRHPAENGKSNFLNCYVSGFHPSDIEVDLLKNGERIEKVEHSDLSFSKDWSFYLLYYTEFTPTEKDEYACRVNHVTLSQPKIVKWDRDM
T7 sequence (P12314 16-288 limits assumed): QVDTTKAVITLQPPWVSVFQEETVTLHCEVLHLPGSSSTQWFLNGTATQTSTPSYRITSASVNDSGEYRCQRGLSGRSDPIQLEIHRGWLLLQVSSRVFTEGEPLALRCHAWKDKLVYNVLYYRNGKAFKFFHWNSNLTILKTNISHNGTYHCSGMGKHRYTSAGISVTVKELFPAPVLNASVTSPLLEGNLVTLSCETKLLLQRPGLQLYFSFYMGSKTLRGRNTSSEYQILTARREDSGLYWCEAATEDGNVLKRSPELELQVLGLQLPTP
T6 sequence (P08637 17-208 F176V): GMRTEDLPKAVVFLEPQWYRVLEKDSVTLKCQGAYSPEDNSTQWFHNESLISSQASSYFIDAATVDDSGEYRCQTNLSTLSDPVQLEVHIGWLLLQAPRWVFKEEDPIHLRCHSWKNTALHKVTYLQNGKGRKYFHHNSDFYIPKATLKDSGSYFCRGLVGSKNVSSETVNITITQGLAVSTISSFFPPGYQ
T1 sequence (O75015 17-200 limits assumed): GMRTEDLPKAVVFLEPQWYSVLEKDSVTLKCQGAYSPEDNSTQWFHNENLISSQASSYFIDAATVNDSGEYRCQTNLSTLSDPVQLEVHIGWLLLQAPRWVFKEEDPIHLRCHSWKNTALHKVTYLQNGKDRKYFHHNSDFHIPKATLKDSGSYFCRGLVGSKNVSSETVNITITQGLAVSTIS
T2 sequence (P08637 17-208 limits assumed): as the sequence (P08637 17-208 F176V) above, with V160F counted along it

B1: wild-type human IgG1 control (antibody)
heavy: not shown
light: SYELTQPPSVSVSPGQTASITCSGDNIGDQYAHWYQQKPGQSPVLVIYQDKNRPSGIPERFSGSNSGNTATLTISGTQAMDEADYYCATYTGFGSLAVFGGGTKLTVLGQPKAAPSVTLFPPSSEELQANKATLVCLISDFYPGAVTVAWKADSSPVKAGVETTTPSKQSNNKYAASSYLSLTPEQWKSHRSYSCQVTHEGSTVEKTVAPTECS
notes: Control IgG
Kd [1]: 130 nM
koff [1]: 0.027 s⁻¹
kon [1]: 210000 M⁻¹ s⁻¹
Kd [2]: 120 nM
koff [2]: 0.02 s⁻¹
kon [2]: 170000 M⁻¹ s⁻¹
Kd [3]: 130 nM
koff [3]: 0.027 s⁻¹
kon [3]: 210000 M⁻¹ s⁻¹
Kd [4]: 120 nM
koff [4]: 0.02 s⁻¹
kon [4]: 170000 M⁻¹ s⁻¹
Kd [5]: 56 nM
koff [5]: 0.032 s⁻¹
kon [5]: 570000 M⁻¹ s⁻¹
Kd [6]: 130 nM
koff [6]: 0.016 s⁻¹
kon [6]: 120000 M⁻¹ s⁻¹
Kd [7]: 130 nM
koff [7]: 0.027 s⁻¹
kon [7]: 210000 M⁻¹ s⁻¹
Kd [8]: 16 nM
koff [8]: 0.008 s⁻¹
kon [8]: 480000 M⁻¹ s⁻¹
Kd [9]: 60 nM
koff [9]: 0.027 s⁻¹
kon [9]: 450000 M⁻¹ s⁻¹
Kd [10]: 5.6 nM
koff [10]: 0.0012 s⁻¹
kon [10]: 220000 M⁻¹ s⁻¹
Kd [11]: 120 nM
koff [11]: 0.02 s⁻¹
kon [11]: 170000 M⁻¹ s⁻¹
Kd [12]: 130 nM
koff [12]: 0.027 s⁻¹
kon [12]: 210000 M⁻¹ s⁻¹
Kd [13]: 120 nM
koff [13]: 0.02 s⁻¹
kon [13]: 170000 M⁻¹ s⁻¹
Kd [14]: 130 nM
koff [14]: 0.027 s⁻¹
kon [14]: 210000 M⁻¹ s⁻¹
Kd [15]: 120 nM
koff [15]: 0.02 s⁻¹
kon [15]: 170000 M⁻¹ s⁻¹
